Literature values, collected in article PMC10823516.
pKd: −log10 of the molar value.

Molecular target: HER2 ECD (Homo sapiens) (UniProt P04626)

With Trastuzumab Fab Fab as the substance, how does the pKd read?
Its pKd is 8.70.
